The chains are these.
B3: GST-Exo84 (aa 1–326) (domain or fragment)
chain: MVEFSLKKARNNWKHVKKSASSPAKQKTPPSPAKPKQKTKKNPYSDLKDPATSYTLPTINARERSRVATSMQRRLSIHNTNYAPPTLDYSMPLPDMPNMIVPNDNVDSSHNNSSFTTENESVSSKGPSNSLNLSTADLSLNDSSYNKVPARSAMRNTVNPSGSNDPFNNSTSLRKMLANPHFNAKDFVHDKLGNASAITIDKFTSNLTDLSIQVQEEVKLNINKSYNEIMTVNNDLNVAMLELKRVRANINDLNEVLDQCTKIAEKRLQLQDQIDQERQGNFNNVESHSNSPALLPPLKAGQNGNLMRRDRSSVLILEKFWDTELD

What all share (experiment): pull-down
The target in the test “GST-Exo84 (aa 1–326)” is B3.
Test [1] concerns the target His-tagged Exo84 (aa 1–326) (S. cerevisiae, UniProt P38261 1-326).
A further test addresses T1, Sro7 (full length) (yeast, UniProt Q12038 1-1033).
T1 sequence: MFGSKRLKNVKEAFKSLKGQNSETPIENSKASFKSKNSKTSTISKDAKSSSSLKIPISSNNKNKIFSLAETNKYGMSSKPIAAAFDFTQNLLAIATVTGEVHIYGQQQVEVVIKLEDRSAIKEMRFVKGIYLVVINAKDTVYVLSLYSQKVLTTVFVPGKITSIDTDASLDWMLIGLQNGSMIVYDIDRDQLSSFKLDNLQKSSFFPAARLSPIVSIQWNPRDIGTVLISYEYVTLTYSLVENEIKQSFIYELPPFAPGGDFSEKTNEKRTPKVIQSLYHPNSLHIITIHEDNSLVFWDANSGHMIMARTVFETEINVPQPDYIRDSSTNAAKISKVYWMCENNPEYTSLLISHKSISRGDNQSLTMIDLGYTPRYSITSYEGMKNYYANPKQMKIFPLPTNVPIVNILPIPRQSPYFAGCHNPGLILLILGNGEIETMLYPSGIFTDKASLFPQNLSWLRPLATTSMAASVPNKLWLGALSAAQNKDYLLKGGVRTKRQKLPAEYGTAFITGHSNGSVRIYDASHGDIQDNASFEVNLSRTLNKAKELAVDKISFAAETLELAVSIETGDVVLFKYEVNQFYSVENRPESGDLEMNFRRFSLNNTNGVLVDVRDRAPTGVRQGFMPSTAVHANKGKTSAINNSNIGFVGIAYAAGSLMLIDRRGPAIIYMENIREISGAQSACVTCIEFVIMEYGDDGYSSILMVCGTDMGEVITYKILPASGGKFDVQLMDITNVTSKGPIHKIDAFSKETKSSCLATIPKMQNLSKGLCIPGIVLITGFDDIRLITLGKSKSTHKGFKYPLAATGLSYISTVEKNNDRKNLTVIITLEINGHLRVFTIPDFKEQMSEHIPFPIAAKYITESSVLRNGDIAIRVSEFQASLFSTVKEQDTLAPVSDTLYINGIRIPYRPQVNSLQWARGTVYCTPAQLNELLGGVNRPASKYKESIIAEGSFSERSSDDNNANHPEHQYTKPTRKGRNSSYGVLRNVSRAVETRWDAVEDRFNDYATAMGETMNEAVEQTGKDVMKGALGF

B1: His-tagged Sro7-NT (aa 1–90) (domain or fragment)
chain: MFGSKRLKNVKEAFKSLKGQNSETPIENSKASFKSKNSKTSTISKDAKSSSSLKIPISSNNKNKIFSLAETNKYGMSSKPIAAAFDFTQN
Turning to B1, the binding result with GST-Exo84 (aa 1–326) is recorded as “binds”.

B2: C-terminally tagged GST-Sro7-NT (aa 1–79) (domain or fragment)
chain: MFGSKRLKNVKEAFKSLKGQNSETPIENSKASFKSKNSKTSTISKDAKSSSSLKIPISSNNKNKIFSLAETNKYGMSSK
For the molecule B2, the binding result in test [1] was “binds”. For B3, in the test with Sro7 (full length), the binding result is “binds”.

The record behind these values is paper PMC9929655 (The Journal of Cell Biology, 2023).
